Results: patent publication US20140086913A1 (Gilead, published 2014)
Where two headings read alike, the source gives them in different places.

T1: mouse ECD-DDR1-Fc (mouse; human, UniProt Q03146 22-414)
T1 construct: also called mouse DDR1-ECD; wild-type mouse DDR1-ECD; not shown: human IgG1 Fc of the vector pFuse-hIgG1-Fc1 (Invivogen)
T1 sequence: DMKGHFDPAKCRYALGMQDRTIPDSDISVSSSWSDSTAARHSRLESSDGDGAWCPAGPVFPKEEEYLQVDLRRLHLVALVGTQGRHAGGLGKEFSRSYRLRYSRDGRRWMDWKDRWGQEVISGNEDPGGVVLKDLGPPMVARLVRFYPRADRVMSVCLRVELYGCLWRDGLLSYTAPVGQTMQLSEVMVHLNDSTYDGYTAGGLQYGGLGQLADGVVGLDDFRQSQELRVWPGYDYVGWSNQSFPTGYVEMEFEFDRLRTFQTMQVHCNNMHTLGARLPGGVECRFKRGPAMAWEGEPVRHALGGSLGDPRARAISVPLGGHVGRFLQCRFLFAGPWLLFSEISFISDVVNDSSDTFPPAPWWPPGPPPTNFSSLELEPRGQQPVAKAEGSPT

T2: human DDR2 stably expressed on HEK293 cells (human) (UniProt Q16832)
T2 sequence (looked up): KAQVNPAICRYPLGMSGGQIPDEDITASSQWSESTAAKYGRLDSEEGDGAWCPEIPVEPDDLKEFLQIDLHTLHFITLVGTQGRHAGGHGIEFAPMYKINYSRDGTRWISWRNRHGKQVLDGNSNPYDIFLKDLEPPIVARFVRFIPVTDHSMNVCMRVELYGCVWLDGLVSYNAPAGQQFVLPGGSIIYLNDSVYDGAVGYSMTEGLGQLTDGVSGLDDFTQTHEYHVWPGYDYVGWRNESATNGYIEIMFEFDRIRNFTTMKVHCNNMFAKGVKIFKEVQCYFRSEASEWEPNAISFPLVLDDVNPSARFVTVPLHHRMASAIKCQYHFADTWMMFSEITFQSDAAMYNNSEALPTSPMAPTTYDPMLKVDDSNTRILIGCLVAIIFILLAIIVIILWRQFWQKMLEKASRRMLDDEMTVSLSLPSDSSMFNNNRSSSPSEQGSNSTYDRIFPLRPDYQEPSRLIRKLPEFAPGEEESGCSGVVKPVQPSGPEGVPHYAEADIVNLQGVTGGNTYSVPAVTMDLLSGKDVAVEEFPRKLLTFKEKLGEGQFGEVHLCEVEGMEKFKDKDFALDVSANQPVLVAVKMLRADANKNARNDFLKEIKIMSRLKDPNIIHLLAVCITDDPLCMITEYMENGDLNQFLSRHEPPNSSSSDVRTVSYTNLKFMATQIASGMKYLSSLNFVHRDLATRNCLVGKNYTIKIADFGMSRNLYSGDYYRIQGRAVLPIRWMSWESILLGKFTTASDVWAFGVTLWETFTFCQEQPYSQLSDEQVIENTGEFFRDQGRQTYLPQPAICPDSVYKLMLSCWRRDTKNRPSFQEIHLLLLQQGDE

T3: human DDR2 stably expressed on HEK293 cells (human, UniProt Q16832 22-855)
T3 construct: whole, on cells; also called hDDR2
T3 sequence (looked up): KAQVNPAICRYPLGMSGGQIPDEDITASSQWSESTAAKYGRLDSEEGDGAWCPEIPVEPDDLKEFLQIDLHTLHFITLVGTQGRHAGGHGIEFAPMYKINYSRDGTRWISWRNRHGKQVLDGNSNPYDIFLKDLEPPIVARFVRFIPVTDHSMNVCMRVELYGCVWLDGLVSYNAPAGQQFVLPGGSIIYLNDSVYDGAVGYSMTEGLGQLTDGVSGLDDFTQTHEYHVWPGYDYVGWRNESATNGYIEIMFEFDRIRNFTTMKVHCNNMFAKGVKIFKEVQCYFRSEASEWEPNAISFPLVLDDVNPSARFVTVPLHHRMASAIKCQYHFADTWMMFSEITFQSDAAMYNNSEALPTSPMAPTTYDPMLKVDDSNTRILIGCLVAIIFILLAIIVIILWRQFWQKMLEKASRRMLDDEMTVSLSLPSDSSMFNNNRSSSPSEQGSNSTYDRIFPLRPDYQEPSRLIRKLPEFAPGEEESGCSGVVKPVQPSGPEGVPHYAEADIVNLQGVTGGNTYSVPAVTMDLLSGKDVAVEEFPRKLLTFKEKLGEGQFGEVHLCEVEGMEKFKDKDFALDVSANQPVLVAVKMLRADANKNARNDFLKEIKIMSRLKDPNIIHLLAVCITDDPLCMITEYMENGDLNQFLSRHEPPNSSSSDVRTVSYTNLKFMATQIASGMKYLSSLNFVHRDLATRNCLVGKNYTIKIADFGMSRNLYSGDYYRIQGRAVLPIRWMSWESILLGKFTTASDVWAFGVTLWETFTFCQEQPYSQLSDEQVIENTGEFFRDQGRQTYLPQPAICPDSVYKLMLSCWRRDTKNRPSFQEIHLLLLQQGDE


Experiments:
[1] = target: human DDR1 (isoform B) stably expressed on HEK293 cells (human) (UniProt Q08345); assay: flow cytometry, HEK293/hDDR1
Sequence of human DDR1 (isoform B) stably expressed on HEK293 cells (human) (Q08345 19-913): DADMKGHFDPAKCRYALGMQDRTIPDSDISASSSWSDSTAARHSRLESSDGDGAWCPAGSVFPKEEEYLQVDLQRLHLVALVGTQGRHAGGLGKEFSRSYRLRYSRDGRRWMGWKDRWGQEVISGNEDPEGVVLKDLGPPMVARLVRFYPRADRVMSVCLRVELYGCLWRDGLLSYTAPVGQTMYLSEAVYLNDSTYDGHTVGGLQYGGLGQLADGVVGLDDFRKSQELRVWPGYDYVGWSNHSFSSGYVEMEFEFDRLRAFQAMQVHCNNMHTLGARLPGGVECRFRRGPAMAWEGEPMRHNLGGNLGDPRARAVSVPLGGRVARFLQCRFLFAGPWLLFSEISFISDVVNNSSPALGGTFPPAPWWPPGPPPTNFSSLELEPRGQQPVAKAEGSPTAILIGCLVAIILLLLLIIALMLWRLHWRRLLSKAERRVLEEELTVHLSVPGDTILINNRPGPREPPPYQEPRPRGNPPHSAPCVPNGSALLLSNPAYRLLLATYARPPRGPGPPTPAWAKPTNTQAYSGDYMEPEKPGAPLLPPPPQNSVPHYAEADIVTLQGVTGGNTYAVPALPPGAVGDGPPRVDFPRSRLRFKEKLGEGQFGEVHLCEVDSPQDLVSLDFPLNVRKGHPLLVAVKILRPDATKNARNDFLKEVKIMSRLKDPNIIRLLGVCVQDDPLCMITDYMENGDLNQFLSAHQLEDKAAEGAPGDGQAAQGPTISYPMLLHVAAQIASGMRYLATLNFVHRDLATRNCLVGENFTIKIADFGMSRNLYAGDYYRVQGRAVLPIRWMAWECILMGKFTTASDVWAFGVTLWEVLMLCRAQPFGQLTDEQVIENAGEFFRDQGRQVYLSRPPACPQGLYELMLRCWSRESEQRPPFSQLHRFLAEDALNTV

[2] = target: DDR1 with a ProLink Tag (PK) in engineered U20S cells (DiscoveRx), Q08345; assay: cell-based or functional assay
[3] = target: DDR1 endogenously expressed on human cancer cell lines (T47D, HCT-116, A431) (human) (UniProt Q08345); assay: flow cytometry, HCT116 cells
[4] = target: DDR1 endogenously expressed on human cancer cell lines (T47D, HCT-116, A431) (human) (UniProt Q08345); assay: flow cytometry, T47D cells
[5] = target: T4, DDR1ECD-Fc (R&D Systems, Catalog #2396-DR) (human, UniProt Q08345 21-416); assay: ELISA, coated antigen, apparent KD
T4 construct: range 21-416; construct as described for the bought immunogen; also called human ECD-DDR1-Fc; Fc-ECD-DR1; not shown: human IgG1, Pro100-Lys330
Procedure: (§1) In this study, ELISA was used to determine the affinity of murine anti-DDR1 monoclonal antibodies to the extracellular domain (ECD) of either human or murine DDR1. A 96-well MaxiSorb ELISA plates (Nunc) were coated with 2 μg/mL of one of three purified recombinant tagged proteins: human ECD-DDR1-His protein, human ECD-DDR1-Fc, or mouse ECD-DDR1-Fc overnight at 4° C. The next day, the plates were blocked with 5% bovine serum albumin (BSA, Jackson Immunoresearch) prior to the addition of serially diluted anti-DDR1 monoclonal antibodies. Antibodies were incubated for 1 hr at room temperature. The binding of antibody to the antigen was detected by incubating samples with anti-mouse IgG-HRP (horse radish peroxidase) secondary detection antibody (Jackson Immunoresearch) for 1 hr. After a washing step, 3,3′,5,5″-tetramethylbenzidine (TMB) reagent was added for HRP to produce a colorimetric signal. The reaction was stopped by addition of 1M hydrochloric acid after 2 minutes and measured for absorbance (optical density, OD) at 450λ on a Molecular Devices plate reader. The OD values were plotted against antibody concentration and fitted using a using 4-parameter logistic equation in SoftMax software (Molecular Devices). The apparent affinity constant (KD) was taken from the C-parameter of the equation (y=(A−D)/(1+(x/C)̂B)+D). The apparent affinity constants were summarized (in some cases shown as average values) in Table 10 below. Lower value indicates higher binding affinity of the antibody to the antigen.

[6] = target: T5, human ECD-DDR1-His protein (human, UniProt Q08345 21-416); assay: ELISA, coated antigen, apparent KD
T5 construct: also called huDDR1-ECD-His; DDR1ECD-6Xhis; not shown: His tag
Procedure: as §1

mouse ECD-DDR1-Fc = target: T1, mouse ECD-DDR1-Fc; assay: ELISA, coated antigen, apparent KD
Procedure: as §1

[7] = target: DDR1 endogenously expressed on human cancer cell lines (T47D, HCT-116, A431) (human) (UniProt Q08345); assay: cell-based or functional assay
[8] = target: T2, human DDR2 stably expressed on HEK293 cells (human); assay: flow cytometry, HEK293/hDDR2
[9] = target: T3, human DDR2 stably expressed on HEK293 …; assay: flow cytometry, HEK293/hDDR2
Procedure: Additional monoclonal antibodies were obtained from individual hybridomas in Example 1 and were characterized for their properties.
Cells were cultured in DMEM with 10% FBS and 0.8 mg/mL hygromycin. When cells reached 60-80% confluence, they were centrifuged at 1,200 rpm for 5 minutes, suspended in FACS buffer (1×PBS, 1% BSA), and aliquoted into a 96-well plate at 1×10⁶ cells per well. The anti-DDR1 monoclonal antibodies or appropriate isotype controls at 2 μg per 1×10⁶ cells were added and incubated at 4° C. for 1 hr. The cells were washed twice with FACS buffer then stained with the anti-IgG-PE secondary antibody at 10 μL per well at 4° C. for 1 hr. The cells were washed again and measured for the MFI values or signals using flow cytometry (LSR Fortessa instrument, BD Biosciences). Background MFI signals from vector-only cells (i.e. no DDR1 or DDR2 expression) was subtracted from those of the cells treated with antibodies. Higher MFI values or signals indicated increased binding or specificity of the anti-DDR1 antibodies to the DDR1 on the cell surface.

[10] = target: DDR1 endogenously expressed on human cancer cell lines (T47D, HCT-116, A431) (human) (UniProt Q08345); assay: cell-based or functional assay; remark: listed apart in the source
[11] = target: DDR1 with a ProLink Tag (PK) in engineered U20S cells (DiscoveRx) (UniProt Q08345); assay: cell-based or functional assay

MFI [1] [MFI]	Mean EC50, DDR1 Tyr513 phosphorylation assay (U20S) [2] [nM]	MFI [3] [MFI]	MFI [4] [MFI]	Kd [5] [nM]	Kd [6] [nM]	Kd (mouse ECD-DDR1-Fc) [nM]	EC50, DDR1 phospho-specific ELISA (T47D) [7] [nM]	EC50, cluster formation assay (A431 cells) [7] [nM]	Maximal inhibition, DDR1 phospho-specific ELISA (T47D) [7] [%]	MFI [8] [MFI]	MFI [9] [MFI]	EC50, DDR1 phospho-specific ELISA (T47D) [10] [nM]	EC50, cluster formation assay (A431 cells) [10] [nM]	Maximal inhibition, DDR1 phospho-specific ELISA (T47D) [10] [%]	NPI of cluster formation at 66 nM (A431 cells) [10] [%]	Mean EC50, DDR1 Tyr513 phosphorylation assay (U20S) [11] [nM]	Binder
3140	2.2	572	1220	0.669	0.418	2.89	4.67	1.24	100	313	–	–	–	–	–	–	AB2080 (antibody, V domains shown, mouse hybridoma mAb) VH: EVQLQQSGPELVKPGASMKISCKASGYSFTGYTMTWVKQSHGKNLEWIGLINPYIGVTSYNQKFKGKATLTVDKSSSTAYMELLSLTSEDSAVYYCARLYDRGGRYAMDYWGQGTSVTVSS VL: QIVLTQSPAIMSASPGEKVPMTCSASSSVSFMHWYQQKSGTSPKRWIYDTSKLASGVPARFSGSGSGTSYSLTISNMEAEDAATYYCQQWNSDPWTFGGGSKL
7500	–	1200	4620	0.418	0.391	28	–	–	–	–	384	0.66	0.88	100	126	2.5	AB2061 (antibody, V domains shown, mouse hybridoma mAb) VH: EIQLQQSGPELVNPGASVKVSCKASGYSFTDYNMYWVKQSHGKSLEWIGYIDPYNGGTSYNQKFKGKATLTVDKSSSTAFMHLNSLTSEDSAVYYCAREYYGSRLWYFDVWGAGTAVTVSS VL: DIVMTQSPSSLAMSVGQKVTMSCKSSQSLLNRNNQKNYLAWYQQKPGQSPKLLVYFASTRESGVPDRFIGSGSGTDFTLTLSSVRAEDLAENFCQQHYSTPFTFGSGTRLEIKR
